# Measurements published in FireProtDB (doi:10.1016/j.bbapap.2014.10.010).
# Conditions: Homo sapiens; pH 7.4; Thermal; DSC; Hepes 20 mM; NaCl 200 mM; transition: 2; reversible: No; whole UniProt chain shown
protein,measurement,value
"Alanine--glyoxylate aminotransferase wild type, P21549 (protein) MASHKLLVTPPKALLKPLSIPNQLLLGPGPSNLPPRIMAAGGLQMIGSMSKDMYQIMDEIKEGIQYVFQTRNPLTLVISGSGHCALEAALVNVLEPGDSFLVGANGIWGQRAVDIGERIGARVHPMTKDPGGHYTLQEVEEGLAQHKPVLLFLTHGESSTGVLQPLDGFGELCHRYKCLLLVDSVASLGGTPLYMDRQGIDILYSGSQKALNAPPGTSLISFSDKAKKKMYSRKTKPFSFYLDIKWLANFWGCDDQPRMYHHTIPVISLYSLRESLALIAEQGLENSWRQHREAAAYLHGRLQALGLQLFVKDPALRLPTVTTVAVPAGYDWRDIVSYVIDHFDIEIMGGLGPSTGKVLRIGLLGCNATRENVDRVTEALRAALQHCPKKKL",Tm,82.1 °C
same,unfolding enthalpy (calorimetric),547 kcal/mol
